We go through 3 molecules from publication PMC10191176 (Nature immunology, 2022).

Data set [1] deals with HLA-DR4 (DRA*0101/DRB1*0401) with the linked p24 HIV Gag peptide 164-183 (HLA-DR4^HIV) (human | HIV). The data set is described as follows: SPR.
Data set [2] deals with HLA-DR4 loaded with CLIP peptide (UniProt P04233). The data set is described as follows: SPR.
The data set “SEC-MALS” concerns the molecule itself. The data set can be described thus: SEC-MALS.
Data set [3] concerns the target T1, yeast-displayed FGL1^FD Y244A/E245A (human, UniProt Q08830 58-312, Y244A | E245A).
T1 sequence (looked up): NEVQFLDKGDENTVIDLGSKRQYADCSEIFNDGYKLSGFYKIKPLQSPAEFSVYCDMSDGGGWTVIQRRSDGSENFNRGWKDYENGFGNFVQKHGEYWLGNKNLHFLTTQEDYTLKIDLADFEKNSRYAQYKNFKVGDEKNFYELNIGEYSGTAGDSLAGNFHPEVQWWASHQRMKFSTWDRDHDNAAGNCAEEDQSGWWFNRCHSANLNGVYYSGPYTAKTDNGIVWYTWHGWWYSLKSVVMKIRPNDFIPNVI
The data set is described as follows: flow cytometry on cells.

The target in data set [4] is T2, yeast-displayed FGL1^FD E250A/E251A/D252A (human, UniProt Q08830 58-312, E250A | E251A | D252A).
T2 sequence (looked up): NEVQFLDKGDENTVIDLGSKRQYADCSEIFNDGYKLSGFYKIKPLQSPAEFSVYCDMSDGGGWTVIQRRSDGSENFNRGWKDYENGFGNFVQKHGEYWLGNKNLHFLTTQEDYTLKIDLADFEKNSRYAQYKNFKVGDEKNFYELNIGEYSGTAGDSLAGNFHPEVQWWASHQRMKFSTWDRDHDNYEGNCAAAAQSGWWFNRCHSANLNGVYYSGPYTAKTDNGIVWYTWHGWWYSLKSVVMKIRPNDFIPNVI
The data set can be described thus: flow cytometry on cells.

Chain of HLA-DR4 loaded with CLIP peptide (P04233 whole entry, looked up, tested part not stated): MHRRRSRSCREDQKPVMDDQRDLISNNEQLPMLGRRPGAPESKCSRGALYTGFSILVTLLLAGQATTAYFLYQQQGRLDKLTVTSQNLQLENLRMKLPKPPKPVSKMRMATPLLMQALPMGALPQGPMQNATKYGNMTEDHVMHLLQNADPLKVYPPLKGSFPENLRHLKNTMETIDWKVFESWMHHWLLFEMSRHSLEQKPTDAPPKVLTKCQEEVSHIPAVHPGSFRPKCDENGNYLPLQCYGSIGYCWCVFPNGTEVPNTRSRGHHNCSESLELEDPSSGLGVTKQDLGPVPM

On to “hLAG3* (human LAG3 extracellular domain with the M171I mutation) (from UniProt P18627 23-450) (domain or fragment)”, for which the dissociation constant (Kd) is 5.2 µM in data set [1] and 2.45 µM in data set [2].

B1: murine LAG3 extracellular domain (mLAG3, residues 23-442) (domain or fragment, mouse, UniProt Q61790 23-442, looked up)
chain: SGPGKELPVVWAQEGAPVHLPCSLKSPNLDPNFLRRGGVIWQHQPDSGQPTPIPALDLHQGMPSPRQPAPGRYTVLSVAPGGLRSGRQPLHPHVQLEERGLQRGDFSLWLRPALRTDAGEYHATVRLPNRALSCSLRLRVGQASMIASPSGVLKLSDWVLLNCSFSRPDRPVSVHWFQGQNRVPVYNSPRHFLAETFLLLPQVSPLDSGTWGCVLTYRDGFNVSITYNLKVLGLEPVAPLTVYAAEGSRVELPCHLPPGVGTPSLLIAKWTPPGGGPELPVAGKSGNFTLHLEAVGLAQAGTYTCSIHLQGQQLNATVTLAVITVTPKSFGLPGSRGKLLCEVTPASGKERFVWRPLNNLSRSCPGPVLEIQEARLLAERWQCQLYEGQRLLGATVYAAESSSGAHSARRISGDLKGGHL
On to B1, for which the “stoichiometry N” value in the data set “SEC-MALS” was found to be 2.

B2: hLAG3* (human LAG3 extracellular domain with the M171I mutation) (domain or fragment, UniProt P18627 23-450, looked up)
chain: LQPGAEVPVVWAQEGAPAQLPCSPTIPLQDLSLLRRAGVTWQHQPDSGPPAAAPGHPLAPGPHPAAPSSWGPRPRRYTVLSVGPGGLRSGRLPLQPRVQLDERGRQRGDFSLWLRPARRADAGEYRAAVHLRDRALSCRLRLRLGQASITASPPGSLRASDWVILNCSFSRPDRPASVHWFRNRGQGRVPVRESPHHHLAESFLFLPQVSPMDSGPWGCILTYRDGFNVSIMYNLTVLGLEPPTPLTVYAGAGSRVGLPCRLPAGVGTRSFLTAKWTPPGGGPDLLVTGDNGDFTLRLEDVSQAQAGTYTCHIHLQEQQLNATVTLAIITVTPKSFGSPGSLGKLLCEVTPVSGQERFVWSSLDTPSQRSFSGPWLEAQEAQLLSQPWQCQLYQGERLLGAAVYFTELSSPGAQRSGRAPGALPAGHL
modifications: biotin on the BAP tag (BirA ligase) in binding experiments
Turning to B2, the “reduction of binding relative to wild-type FGL1^FD” value stood at 75% in data set [3] and 80% in data set [4].
